Experimental data reported in patent US8877192B2, “Rage fusion proteins and methods of use” (TransTech Pharma, LLC, priority 2004, dated 2014).
Read-outs that look alike come from different tables or passages of the source.

What was measured:
[1] = cited from earlier work
[2] = listed as human sRAGE; cited from earlier work
amyloid-beta (Abeta) = molecular target: T1, amyloid-beta (Abeta) (Homo sapiens, UniProt P05067); assay: In vitro ligand binding (ELISA) to immobilized amyloid-beta; conditions: increasing dilutions of fusion protein; FIG. 7
T1 construct: Amyloid Beta (1-40) from Biosource; purchased Biosource
Experimental: (§1) For example, the RAGE fusion protein may be used in a binding assay to identify potential RAGE ligands. In one example embodiment of such a binding assay, a known RAGE ligand may coated onto a solid substrate (e.g., Maxisorb plates) at a concentration of about 5 micrograms per well, where each well contains a total volume of about 100 microliters (μL). The plates may be incubated at 4° C. overnight to allow the ligand to absorb. Alternatively, shorter incubation periods at higher temperature (e.g., room temperature) may be used. […] The fusion protein bound to the immobilized ligand may be detected in a variety of ways. […] The bound complex may be detected by adding the alkaline phosphatase substrate, para-nitrophenylphosphate (PNPP), and measuring conversion of PNPP to para-nitrophenol (PNP) as an increase in absorbance at 405 nm. […] Binding was detected by the addition of an immunodetection complex containing a monoclonal mouse anti-human IgG1 diluted 1:11,000 to a final assay concentration (FAC) of 21 ng/100 μL, a biotinylated goat anti-mouse IgG diluted 1:500, to a FAC of […], and an avidin-linked alkaline phosphatase. […] Binding of the complex to the immobilized fusion protein was quantified by measuring conversion of PNPP to para-nitrophenol (PNP) which was measured spectrophotometrically at 405 nm. […]

S100b (S100) = molecular target: T2, S100b (S100) (Homo sapiens, UniProt P04271); assay: In vitro ligand binding (ELISA) to immobilized S100b; conditions: increasing dilutions of fusion protein; FIG. 7
T2 sequence (P04271 1-92): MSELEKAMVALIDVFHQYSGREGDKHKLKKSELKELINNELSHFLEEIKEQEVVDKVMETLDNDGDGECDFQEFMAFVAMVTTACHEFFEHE
Experimental: as §1

amphoterin (Ampho) = molecular target: T3, amphoterin (Ampho) (Homo sapiens, UniProt P09429); assay: In vitro ligand binding (ELISA) to immobilized amphoterin; conditions: increasing dilutions of fusion protein; FIG. 7
T3 sequence (P09429 1-215): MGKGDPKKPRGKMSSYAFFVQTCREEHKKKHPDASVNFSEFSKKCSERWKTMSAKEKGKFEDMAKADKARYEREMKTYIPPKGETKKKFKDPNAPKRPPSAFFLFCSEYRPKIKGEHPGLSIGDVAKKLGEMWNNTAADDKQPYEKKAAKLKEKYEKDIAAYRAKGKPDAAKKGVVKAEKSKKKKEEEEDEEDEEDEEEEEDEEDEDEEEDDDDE
Experimental: as §1

[3] = test system: transgenic mice expressing the human Swedish mutant amyloid precursor protein (APP); assay: Mouse model of AD (APP transgenic mice); assay type: in vivo; conditions: treated for 3 months, versus vehicle and human IgG1
Experimental: Experiments were performed to evaluate whether TTP-4000 could affect amyloid formation and cognitive dysfunction in a mouse model of AD. The experiments utilized transgenic mice expressing the human Swedish mutant amyloid precursor protein (APP) under the control of the PDGF-B chain promoter. Over time, these mice generate high levels of the RAGE ligand, amyloid beta (Aβ).
The APP mice (male) used in this experiment were designed by microinjection of the human APP gene (with the Swedish and London mutations) into mouse eggs under the control of the platelet-derived growth factor B (PDGF-B) chain gene promoter. The mice were generated on a C57BL/6 background and were developed by Molecular Therapeutics Inc. Animals were fed ad libitum and maintained by brother sister mating. The mice generated from this construct develop amyloid deposits starting at 6 months of age. Animals were aged for 6 months and then maintained for 90 days and sacrificed for amyloid quantification.
APP transgenic mice were administered vehicle or TTP4000 every other day [qod (i.p.)] for 90 days starting at 6 months of age. At the end of the experiment, animals were sacrificed and examined for Aβ plaque burden in the brain (i.e., plaque number). A 6-month control APP group was used to determine the baseline of amyloid deposits. In addition, at the end of the study, the animals were subjected to behavioral (Morris water maze) analysis. The investigators were blinded to the study compounds. Samples were given to the mice at 0.25 ml/mouse/every other day.
For histological examination, the animals were anesthetized with an intraperitoneal injection (IP) of sodium pentobarbital (50 mg/kg). The animals were transcardially perfused with 4° C., phosphate-buffered saline (PBS) followed by 4% paraformaldehyde. The brains were removed and placed in 4% paraformaldehyde over night. The brains were processed to paraffin and embedded. Ten serial 30-μm thick sections through the brain were obtained. Sections were subjected to primary antibody overnight at 4° C. (Aβ peptide antibody) in order to detect the amyloid deposits in the brain of the transgenic animals (Guo et al., J. Neurosci., 22:5900-5909 (2002)). Sections were washed in Tris-buffered saline (TBS) and secondary antibody was added and incubated for 1 hour at room temperature. After washing, the sections were incubated as instructed in the Vector ABC Elite kit (Vector Laboratories) and stained with […] (DAB). The reactions were stopped in water and cover-slipped after treatment with xylene. The amyloid area in each section was determined with a computer-assisted image analysis system, consisting of a Power Macintosh computer equipped with a Quick Capture frame grabber card, Hitachi CCD camera mounted on an Olympus microscope and camera stand. NIH Image Analysis Software, v. 1.55 was used. The images were captured and the total area of amyloid was determined over the ten sections. A single operator blinded to treatment status performed all measurements. Summing the amyloid volumes of the sections and dividing by the total number of sections was done to calculate the amyloid volume.
For quantitative analysis, an enzyme-linked immunosorbent assay (ELISA) was used to measure the levels of human total Aβ, Aβtotal and Aβ1-42 in the brains of APP transgenic mice (Biosource International, Camarillo, Calif.). Aβtotal and Aβ1-42 were extracted from mouse brains by guanidine hydrochloride and quantified as described by the manufacturer. […]

T1 sequence (P05067 672-711 limits assumed): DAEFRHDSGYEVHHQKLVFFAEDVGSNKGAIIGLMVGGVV

**Q.** Which results are given for “sRAGE: soluble RAGE: the RAGE protein that does not include the transmembrane region or the cytoplasmic tail”?
**A.** half-life ([1]; assessed by retention of immunoreactivity sRAGE): less than 2 hours; half-life in plasma [2]: about 2 hours

B1: TTP-3000: three domain RAGE fusion protein (SEQ ID NO: 35): human RAGE amino acids 1-136 linked to CH2 and CH3 domains of human IgG (protein)
chain: MAAGTAVGAWVLVLSLWGAVVGAQNITARIGEPLVLKCKGAPKKPPQRLEWKLNTGRTEAWKVLSPQGGGPWDSVARVLPNGSLFLPAVGIQDEGIFRCQAMNRNGKETKSNYRVRVYQIPGKPEIVDSASELTAGPSVFLFPPKPKDTLMISRTPEVTCVVVDVSHEDPEVKFNWYVDGVEVHNAKTKPREEQYNSTYRVVSVLTVLHQDWLNGKEYKCKVSNKALPAPIEKTISKAKGQPREPQVYTLPPSRDELTKNQVSLTCLVKGFYPSDIAVEWESNGQPENNYKTTPPVLDSDGSFFLYSKLTVDKSRWQQGNVFSCSVMHEALHNHYTQKSLSLSPGK
**Q.** Which “binding to immobilized amyloid-beta (absorbance at 405 nm)” value (amyloid-beta (Abeta)) does the source give for B1 here?
**A.** specifically interact

**Q.** What about the “binding to immobilized S100b (absorbance at 405 nm)” value (S100b (S100)) of the same molecule?
**A.** specifically interact

**Q.** What about the “binding to immobilized amphoterin (absorbance at 405 nm)” value (amphoterin (Ampho)) of the same molecule?
**A.** specifically interact

B2: rodent sRAGE: rodent soluble RAGE, literature half-life comparator (protein, UniProt Q63495 23-341, looked up)
extracellular domain: GQNITARIGEPLMLSCKGAPKKPTQKLEWKLNTGRTEAWKVLSPQGDPWDSVARILPNGSLLLPAIGIVDEGTFRCRATNRLGKEVKSNYRVRVYQIPGKPEIVNPASELTANVPNKVGTCVSEGSYPAGTLSWHLDGKPLIPDGKGTVVKEETRRHPETGLFTLRSELTVTPAQGGTTPTYSCSFSLGLPRRRPLNTAPIQPRVREPLPPEGIQLLVEPEGGTVAPGGTVTLTCAISAQPPPQIHWIKDGTPLPLAPSPVLLLPEVGHEDEGIYSCVATHPSHGPQESPPVNIRVTETGDEGQAAGSVDGSGLGTLAL
modifications: extracellular domain
notes: rodent soluble RAGE, literature half-life comparator
**Q.** For B2, which half-life ([1]; in normal and diabetic rats) is on record?
**A.** approximately 20 hours

B3: mouse sRAGE: mouse soluble RAGE used as comparator in the AD mouse model (protein, UniProt Q62151 23-340, looked up)
extracellular domain: GQNITARIGEPLVLSCKGAPKKPPQQLEWKLNTGRTEAWKVLSPQGGPWDSVARILPNGSLLLPATGIVDEGTFRCRATNRRGKEVKSNYRVRVYQIPGKPEIVDPASELTASVPNKVGTCVSEGSYPAGTLSWHLDGKLLIPDGKETLVKEETRRHPETGLFTLRSELTVIPTQGGTHPTFSCSFSLGLPRRRPLNTAPIQLRVREPGPPEGIQLLVEPEGGIVAPGGTVTLTCAISAQPPPQVHWIKDGAPLPLAPSPVLLLPEVGHEDEGTYSCVATHPSHGPQESPPVSIRVTETGDEGPAEGSVGESGLGTLA
modifications: extracellular domain
notes: mouse soluble RAGE used as comparator in the AD mouse model
**Q.** With B3 as the molecule, how does the “Aβ plaques in the brain” value ([3]; FIG. 14A) read?
**A.** fewer Aβ plaques

**Q.** And the “cognitive dysfunction (Morris water maze)” value ([3]; FIG. 14B)?
**A.** less cognitive dysfunction
